According to paper PMC12434308 (Nature chemical biology, 2021):
Where “and” joins values, the source holds several entries; their conditions need not be identical. Equal values may be shown once.

Molecular target: SARS-CoV-2 S protein (SARS-CoV-2) (UniProt P0DTC2)
Assay: native MS

How did the stoichiometry N turn out when “SARS-CoV-2 S protein (from UniProt P0DTC2) (natural protein)” was run?
The stoichiometry N was 2 and 6.
